Source: PMC11685663

Target: recombinant H5 hemagglutinin (rH5) ectodomain from A/Texas/37/2024 (H5N1, clade 2.3.4.4b) (influenza A virus A/Texas/37/2024 (H5N1))
Assay: cryo-EM structure

Which stoichiometry N does the source give for “recombinant H5 hemagglutinin (rH5) ectodomain from A/Texas/37/2024 (H5N1, clade 2.3.4.4b) (natural protein)” here?
Its stoichiometry N is 3.
